First the molecules themselves.
B1: d subunit of Thermus thermophilus V/A-ATPase (natural protein, UniProt P74902 1-323, looked up)
chain: MADDFAYLNARVRVRRGTLLKESFFQEALDLSFADFLRLLSETVYGGELAGQGLPDVDRAVLRTQAKLVGDLPRLVTGEAREAVRLLLLRNDLHNLQALLRAKATGRPFEEVLLLPGTLREEVWRQAYEAQDPAGMAQVLAVPGHPLARALRAVLRETQDLARVEALLAKRFFEDVAKAAKGLDQPALRDYLALEVDAENLRTAFKLQGSGLAPDAFFLKGGRFVDRVRFARLMEGDYAVLDELSGTPFSGLSGVRDLKALERGLRCVLLKEAKKGVQDPLGVGLVLAYVKEREWEAVRLRLLARRAYFGLPRAQVEEEVVCP
B2: D subunit of Thermus thermophilus V/A-ATPase (natural protein, UniProt O87880 1-223, looked up)
chain: MSQVSPTRMNLLQRRGQLRLAQKGVDLLKKKRDALVAEFFGLVREAMEARKALDQAAKEAYAALLLAQAFDGPEVVAGAALGVPPLEGVEAEVENVWGSKVPRLKATFPDGALLSPVGTPAYTLEASRAFRRYAEALIRVANTETRLKKIGEEIKKTTRRVNALEQVVIPGIRAQIRFIQQVLEQREREDTFRLKRIKGKIEAREAEEEGGRPNPQVEIGAGL

Common to all, as to test: cryo-EM structure
Experiment [1] deals with c subunit of Thermus thermophilus V/A-ATPase, His3-tagged (Thermus thermophilus) (UniProt Q5SIT7).
The target is the same in experiment [2]. The source holds these as a separate data set.
The target in experiment [3] is T1, a subunit of Thermus thermophilus V/A-ATPase (Thermus thermophilus, UniProt Q5SIT6 1-652).
T1 sequence (looked up): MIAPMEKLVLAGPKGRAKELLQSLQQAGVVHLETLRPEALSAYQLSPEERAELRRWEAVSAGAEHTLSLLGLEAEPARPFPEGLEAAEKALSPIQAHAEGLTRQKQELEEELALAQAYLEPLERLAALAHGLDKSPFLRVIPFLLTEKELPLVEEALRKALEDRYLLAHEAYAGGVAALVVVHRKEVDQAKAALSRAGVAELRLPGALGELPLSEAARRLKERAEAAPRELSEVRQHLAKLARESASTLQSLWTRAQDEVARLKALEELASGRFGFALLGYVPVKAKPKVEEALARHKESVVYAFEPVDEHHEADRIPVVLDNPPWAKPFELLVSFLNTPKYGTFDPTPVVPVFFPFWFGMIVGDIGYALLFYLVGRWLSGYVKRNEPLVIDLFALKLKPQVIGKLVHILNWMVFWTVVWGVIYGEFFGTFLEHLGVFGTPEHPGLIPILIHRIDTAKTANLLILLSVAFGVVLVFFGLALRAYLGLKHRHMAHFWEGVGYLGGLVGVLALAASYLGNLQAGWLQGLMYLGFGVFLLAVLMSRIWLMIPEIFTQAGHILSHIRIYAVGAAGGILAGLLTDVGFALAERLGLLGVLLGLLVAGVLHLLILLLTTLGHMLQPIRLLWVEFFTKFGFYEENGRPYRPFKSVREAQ

In experiment [4] the target is B1.

Like-named read-outs stand apart in the source and are kept apart here.

“c subunit of Thermus thermophilus V/A-ATPase, His3-tagged (from UniProt Q5SIT7 1-99) (natural protein)”: the stoichiometry N in experiment [1] and in experiment [2] was 12 throughout.
Take B1: in experiment [3], the binding result is listed as “binds”.
For the molecule B2, the binding result in experiment [4] is given as “binds”.

For orientation: stoichiometry N means a count of units in the complex or per binding partner.
